According to patent US20130115589A1 (UNIVERSITY OF TOKYO, published 2013):

Molecular target: T1, wild-type glycoprotein B (gB) of HSV-1(F) (Herpes simplex virus 1 (HSV-1(F)), UniProt P06436 30-903)
T1 construct: whole, on cells; also called wild-type gB
Assay: flow cytometry on infected 293T cells, PE-labeled anti-human IgG secondary antibody

B1: NMHC-IIArod-Ig (fusion protein of the C terminal fragment of NMHC-IIA and Ig) (Fc fusion)
chain: LAQAKENEKKLKSMEAEMIQLQEELAAAERAKRQAQQERDELADEIANSSGKGALALEEKRRLEARIAQLEEELEEEQGNTELINDRLKKANLQIDQINTDLNLERSHAQKNENARQQLERQNKELKVKLQEMEGTVKSKYKASITALEAKIAQLEEQLDNETKERQAACKQVRRTEKKLKDVLLQVDDERRNAEQYKDQADKASTRLKQLKRQLEEAEEEAQRANASRRKLQRELEDATETADAMNREVSSLKNKLRRGDLPFVVPRRMARKGAGDGSDEEVDGKADGAEAKPAE
notes: also called soluble C-terminal fragment of NMHC-IIA; soluble form of NMHC-IIA
  binding result: binds
